The values that follow come from paper PMC5586147.

The target in experiment [1] is pro-TGF-β1 prodomain expressed in absence of the growth factor (latency-associated peptide, LAP). Nature of the experiment: SPR. Background: In SPR one partner is held on a chip, and binding of the other changes the refractive index at the surface.
Experiment [2] addresses human pro-TGF-β1 (C4S, R249A furin-site mutant, N107Q, N147Q), purified (human). Nature of the experiment: negative-stain electron microscopy.

Where “and” joins values, the source holds several entries; their conditions need not be identical. Identical values can stand only once.

The term Kd denotes a measure of binding affinity in units of concentration. The low end stands for tighter binding, the high end for weaker binding. The substance “soluble integrin αVβ6 headpiece (from UniProt P06756 31-625; P18564 22-491) (complex)” registered a Kd in experiment [1] of 7.6 nM. Also, the stoichiometry N (αVβ6 headpieces per pro-TGF-β1 dimer) in experiment [2] was 2 and 1.
